Data as given in patent US7229960B2, “Methods and compositions for inhibiting GRB7” (University of Vermont and State Agricultural College, priority 2000, dated 2007).
Entries after “also recorded” stand apart in the source; their conditions may differ. Non-standard residues stand in square brackets, D forms with d. No end group written: not given here. pY = N[C@@H](Cc1ccc(OP(=O)(O)O)cc1)C(=O)O

What was measured:
SH2 domain of human Grb7 = biological target: T1, SH2 domain of human Grb7 (Homo sapiens, UniProt Q14451); test: Phage ELISA, peptide-phage binding to Grb7-SH2 domain-GST; conditions: for Relative binding affinity for Grb7: ELISA binding assay, comparison among G7BPs; for Effect of mutation of G7BP-4 phage clone on binding to Grb7-SH2-GST: phage ELISA, compared with G7BP-4
T1 construct: The SH2 domain of human Grb7 containing a GST fusion tag; made in house; host or cells: E. coli
T1 sequence (Q14451 431-527 limits assumed): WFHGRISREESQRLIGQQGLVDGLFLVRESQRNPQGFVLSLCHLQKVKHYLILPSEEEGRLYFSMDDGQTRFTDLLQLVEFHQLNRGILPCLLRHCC
Description: The G7BPs were identified using peptide phage display techniques. Two phage display libraries were created and screened that led to the identification of these peptides. The first library was a random peptide phage-display library containing more than 10^7 different cyclic decapeptides flanked at each end by regions of four amino acids, according to the following general motif: X4 C X10 C X4 (X=any amino acid residue, C=cysteine). […] The SH2 domain of human Grb7 containing a GST fusion tag was purified from an E. coli expression system. The random 10mer library was screened using standard phage display methodology (Smith GP. 1985. Science. 228:1315-7). The phage library was added to the target protein which was immobilized on glutathione Sepharose beads (Pharmacia). The unbound phage were removed with a series of washes and the bound phage were eluted by competitive elution with excess glutathione. These bound phage were allowed to infect E. coli in order to amplify the eluted phage. This screening process was repeated two times for a total of three rounds of screening. After the third round of screening, clones from the amplified phage were isolated and sequenced. Thirty-nine clones were characterized and all contained a Y-A/D/E-N motif, where the +2 position was enriched for alanine, aspartic acid, and glutamic acid. The second library, biased for this Y-A/D/E-N motif, was created in the same FuseV phage display system. This biased library contained over 10^6 different clones.
An ELISA binding assay was used to determine whether the peptide-phage bind specifically to the SH2 domain of Grb7, and not to the fusion protein (GST) or other SH2 domains that are homologous to Grb7. The overall methodology of an ELISA is well established. Four different proteins were bound to a polystyrene 96-well plate: Grb7-SH2 domain-GST, GST alone, Grb2-GST and BSA as a non-specific negative control. Preparations of the concentrated Grb7 peptide-phage clones were allowed to bind to these proteins. Non-specific binding was blocked by casein. Binding of phage was detected using an anti-phage antibody conjugated to horseradish peroxidase.
Mutational analysis of G7BP-4 has been conducted to determine which amino acid residues are important in peptide binding to Grb7-SH2 as well as to determine the size restriction of these peptides. The mutations for G7BP-4 include the following: (1) eliminating the 4 amino acids flanking the cysteines ([…], SEQ ID NO:35) referred to as G7BP4-No Arms (NA), (2) mutating the cysteines to serine residues ([…], SEQ ID NO:36), which are structurally very similar, referred to as G7BP4-Ser, (3) mutating the cysteines to valine residues ([…], SEQ ID NO:37), which is similar in structure and charge, and (4) a combination where the cysteines were mutated to serines and the 4 flanking amino acids were removed ([…], SEQ ID NO:38), referred to as G7BP-No Arms(NA)-Ser. The substitutions of valine and serine for cysteine will eliminate the peptides ability to form a disulfide loop. The mutations were created as a DNA oligo, ligated into the fuse5 vector, and expressed as a peptide-phage. The resultant phage were tested in a phage ELISA for their ability to bind to Grb7-SH2-GST. […] Variants of the G7BP-1, G7BP-2, G7BP-3, G7BP-5, G7BP-6 and G7BP-7 which similarly lack the 4 tracking amino acids on both ends can also bind specifically to Grb7. These peptides have the following amino acid sequences respectively: […]

Grb7-SH2-GST = Grb7-SH2-GST (Homo sapiens, UniProt Q14451); test: Competition ELISA, free synthetic peptide versus Grb7 binding peptide-phage on Grb7-SH2-GST; conditions: for Inhibition of G7-8NA peptide-phage binding to Grb7-SH2 / Inhibition of G7-18 peptide-phage binding to Grb7-SH2: free synthetic peptide at 1, 10, 100 uM
Chain of Grb7-SH2-GST (Q14451 431-527 limits assumed): as above
Description: The G7-18 (FIG. 5A) and G7-8NA (FIG. 5B) peptide-phage were concentrated with standard polyethylene glycol precipitation methods and added to each well (1×10^6 phage/well) in the presence of synthetic peptides or without (control). G7-18 peptide-phage competitors were G7-18, G7-18NATE and G7-8 free synthetic peptides (FIG. 5A). G7-8NA peptide-phage competitors were G7-8, G7-8NA and G7-8NATE free synthetic peptides (FIG. 5B). The synthetic peptides were mixed at different concentrations (1, 10, 100 uM) with peptide-phage before adding to Grb7-SH2-GST. Unbound phage were washed away with Tween-TBS buffer and bound phage were detected with anti-M13-horseradish peroxidase (Amersham-Pharmacia Biotech) and ABTS substrate (Calbiochem). Phage was detected by anti-M13-HRP antibody conjugate and detected using ABTS substrate. Plates were read at OD405.

[1] = biological target: association of Grb7 with the ErbB family of receptors (Homo sapiens, UniProt Q14451); test: Co-immunoprecipitation of Grb7 with tyrosine phosphorylated ErbB family in heregulin-stimulated SKBR3 cell lysate; conditions: for Inhibition of association of Grb7 with the ErbB family: heregulin β1 stimulated SKBR3 lysate, anti-Grb7 IP, anti-phosphotyrosine at 185 kDa, densitometry
Chain of association of Grb7 with the ErbB family of receptors (Q14451 whole entry): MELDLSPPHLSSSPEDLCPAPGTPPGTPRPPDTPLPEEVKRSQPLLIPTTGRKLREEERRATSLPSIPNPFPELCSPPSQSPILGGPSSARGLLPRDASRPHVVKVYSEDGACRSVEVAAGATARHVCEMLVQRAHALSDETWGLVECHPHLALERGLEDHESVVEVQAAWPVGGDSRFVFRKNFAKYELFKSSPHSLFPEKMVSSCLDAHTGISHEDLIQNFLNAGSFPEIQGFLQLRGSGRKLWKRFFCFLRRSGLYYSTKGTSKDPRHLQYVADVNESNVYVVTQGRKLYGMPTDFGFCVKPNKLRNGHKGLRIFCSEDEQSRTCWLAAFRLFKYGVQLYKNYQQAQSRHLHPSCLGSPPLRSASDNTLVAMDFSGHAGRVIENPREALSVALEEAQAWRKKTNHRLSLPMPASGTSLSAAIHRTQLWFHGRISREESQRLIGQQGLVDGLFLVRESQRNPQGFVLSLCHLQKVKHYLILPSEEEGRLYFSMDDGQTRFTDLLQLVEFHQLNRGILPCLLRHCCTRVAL
Description: Two of the Grb7-binding peptides were tested for their ability to inhibit Grb7 from binding its known target molecules, such as ErbB2 and ErbB3, in whole cell extracts. Whole cell extracts were made from the cell line SKBR3, which overexpresses Grb7, ErbB2 and ErbB3. […] The immunoprecipitations were carried out with anti-Grb7 followed by western blot. The western blot was divided so the top half was incubated with anti-phosphotyrosine to detect the associated ErbB family that migrates at 185 kDa. The bottom half of western blot was incubated with anti-Grb7 as a loading control.

Substance: C VFWG YAN DWL C (CVFGYANDWLC; Variant of G7BP-4) [G7BP-4NA]
- Relative binding affinity for Grb7 (SH2 domain of human Grb7): lesser affinity
- Effect of mutation of G7BP-4 phage clone on binding to Grb7-SH2-GST (SH2 domain of human Grb7): did not effect its ability to bind
- Inhibition of G7-8NA peptide-phage binding to Grb7-SH2 (Grb7-SH2-GST): inhibition

Substance: DpYVPML (D[pY]VPML) [N1480, reference compound]
- Inhibition of Grb7 binding peptide-phage binding to Grb7-SH2 (Grb7-SH2-GST; phage clone not specified, data not shown): No inhibition

Substance: GVSN C VFWG YAN DWL C SDYS (GVSNCVFWGYANDWLCSDYS; Peptide sequence from FuseV Phage Display) [G7BP-4]
- Relative binding affinity for Grb7 (SH2 domain of human Grb7): higher affinity
- Inhibition of G7-8NA peptide-phage binding to Grb7-SH2 (Grb7-SH2-GST): inhibition
- Inhibition of G7-18 peptide-phage binding to Grb7-SH2 (Grb7-SH2-GST; listed as G7-8): inhibits; also recorded: inhibition

Substance: GVSNSVFGYANDWLSSDYS (Variant of G7BP-4) [G7BP4-Ser]
- Effect of mutation of G7BP-4 phage clone on binding to Grb7-SH2-GST (SH2 domain of human Grb7): reducing the binding capacity

Substance: GVSNVVFGYANDWLVSDYS (Variant of G7BP-4) [SEQ ID NO:37, G7BP-4 with cysteines mutated to valine]
- Effect of mutation of G7BP-4 phage clone on binding to Grb7-SH2-GST (SH2 domain of human Grb7): reducing the binding capacity

Substance: PQPEYVNQPD (Non-phosphorylated peptide which mimics ErbB2 site) [Y 139]
- Inhibition of association of Grb7 with the ErbB family [1]: showed no competition

Substance: RSTL C WFEG YDN TFP C KYFR (RSTLCWFEGYDNTFPCKYFR; Peptide sequence from FuseV Phage Display) [G7BP-5]
- Inhibition of G7-18 peptide-phage binding to Grb7-SH2 (Grb7-SH2-GST): inhibition
- Level of inhibition of Grb7 co-immunoprecipitation with the ErbB family ([1]; 100 uM, data not shown): same levels of inhibition

Substance: SVFGYANDWLS (Variant of G7BP-4) [G7BP-No Arms(NA)-Ser]
- Effect of mutation of G7BP-4 phage clone on binding to Grb7-SH2-GST (SH2 domain of human Grb7): reducing the binding capacity

Substance: Y1139 peptide: the Y1139 ErbB2-site peptide when it is phosphorylated (PQPEYVNQPD; not fully specified (residue 5))
- Inhibition of association of Grb7 with the ErbB family [1]: does compete

Substance: ^VFWG YAN DWL C^ (VFWGYANDWLC; cyclised thioether; Variant G7BP-4NATE)
- Inhibition of G7-8NA peptide-phage binding to Grb7-SH2 (Grb7-SH2-GST; listed as G7-8NATE): inhibition; also recorded: to a lesser extent than seen with the disulfide containing peptides
